Measured values published in patent US10973880B2, “Compositions and methods for treating pulmonary hypertension” (Acceleron Pharma Inc., priority 2016, dated 2021).
Values belong to the molecule of their own block, whether it stands above or below them.

Columns and labels:
activin B [1] = target: T1, activin B (Homo sapiens, UniProt P09529); assay: similar binding assay (Biacore); conditions: CHO-cell-expressed material
T1 sequence (P09529 293-407): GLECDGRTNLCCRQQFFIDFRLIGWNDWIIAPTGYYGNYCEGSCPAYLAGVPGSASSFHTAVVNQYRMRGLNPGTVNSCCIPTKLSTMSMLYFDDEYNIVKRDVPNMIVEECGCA

[2] = pharmacokinetics in cynomolgus monkeys; format: in vivo, cynomolgus monkey; conditions: initial administration 10 mg/kg
[3] = pharmacokinetic studies in rats; format: in vivo, rat; conditions: initial administration 30 mg/kg
Experimental: The ActRIIA-hFc was very stable in pharmacokinetic studies. Rats were dosed with 1 mg/kg, 3 mg/kg, or 10 mg/kg of ActRIIA-hFc protein, and plasma levels of the protein were measured at 24, 48, 72, 144 and 168 hours. In a separate study, rats were dosed at 1 mg/kg, 10 mg/kg, or 30 mg/kg.

BMP6 [4] = target: T2, BMP6 (Homo sapiens, UniProt P22004); assay: Biacore ligand affinity (Example 10); format: binding; conditions: Smad 1/5/8 ligand
T2 sequence (P22004 375-513): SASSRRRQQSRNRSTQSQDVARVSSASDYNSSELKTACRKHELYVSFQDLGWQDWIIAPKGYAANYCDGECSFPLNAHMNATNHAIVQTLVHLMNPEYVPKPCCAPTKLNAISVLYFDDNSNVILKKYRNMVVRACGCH
Experimental: (§1) The affinity of GDF traps and other ActRIIB-hFc proteins for several ligands was evaluated in vitro with a Biacore™ instrument. Kd values were obtained by steady-state affinity fit due to the very rapid association and dissociation of the complex, which prevented accurate determination of kon and koff.

GDF8 [5] = target: T3, GDF8 (Homo sapiens, UniProt O14793); assay: Biacore ligand affinity (Example 10); format: binding; conditions: Smad 2/3 signaling ligand
T3 sequence (O14793 267-375): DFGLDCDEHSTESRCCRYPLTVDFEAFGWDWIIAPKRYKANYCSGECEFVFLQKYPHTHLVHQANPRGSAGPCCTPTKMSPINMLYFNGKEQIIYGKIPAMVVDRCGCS
Experimental: as §1

BMP10 [6] = target: T4, BMP10 (Homo sapiens, UniProt O95393); assay: Biacore ligand affinity (Example 10); format: binding; conditions: Smad 1/5/8 ligand
T4 sequence (O95393 317-424): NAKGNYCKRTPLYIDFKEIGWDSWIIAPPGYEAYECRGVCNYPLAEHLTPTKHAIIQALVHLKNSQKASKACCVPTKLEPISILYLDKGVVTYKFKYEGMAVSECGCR
Experimental: as §1

activin = conditions: see U.S. Pat. No. 7,842,663; cited from earlier work
GDF11 [7] = target: T5, GDF11 (Homo sapiens, UniProt O95390); conditions: see U.S. Pat. No. 7,842,663; cited from earlier work
T5 sequence (O95390 299-407): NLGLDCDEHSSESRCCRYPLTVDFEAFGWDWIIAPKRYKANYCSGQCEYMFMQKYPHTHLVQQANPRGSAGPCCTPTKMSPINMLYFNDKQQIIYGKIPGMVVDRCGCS

GDF11 [8] = target: T5, GDF11; assay: A-204 reporter gene assay, pGL3(CAGA)12 luciferase; format: cell-based; conditions: Example 13
Description: (§2) Day 1: Split A-204 cells into 48-well plate. […]
(§3) In addition, an A-204 Reporter Gene Assay was used to evaluate the effects of ALK4-Fc:ActRIIB-Fc heterodimer and ActRIIB-Fc:ActRIIB-Fc homodimer on signaling by activin A, activin B, GDF11, GDF8, BMP10, and BMP9. Cell line: Human Rhabdomyosarcoma (derived from muscle). Reporter vector: pGL3(CAGA)12 (as described in Dennler et al, 1998, EMBO 17: 3091-3100). The CAGA12 motif is present in TGFβ responsive genes (PAI-1 gene), so this vector is of general use for factors signaling through Smad2 and 3. An exemplary A-204 Reporter Gene Assay is outlined below. • Day 1: Split A-204 cells into 48-well plate. • Day 2: A-204 cells transfected with 10 ug pGL3(CAGA)12 or pGL3(CAGA)12(10 ug)+pRLCMV (1 ug) and Fugene. • Day 3: Add factors (diluted into medium+0.1% BSA). Inhibitors need to be pre-incubated with Factors for about one hr before adding to cells. About six hrs later, cells are rinsed with PBS and then lysed.
(§4) Following the above steps, a Luciferase assay was performed.

GDF8 [9] = target: T3, GDF8; assay: A-204 reporter gene assay, pGL3(CAGA)12 luciferase; format: cell-based; set-up: host or cells: exogenous factor added to A-204 cells (human rhabdomyosarcoma); conditions: Example 13
Description: as §2, §3, §4

activin A [10] = target: T6, activin A (Homo sapiens, UniProt P08476); assay: A-204 reporter gene assay, pGL3(CAGA)12 luciferase; format: cell-based; conditions: Example 13
T6 sequence (P08476 311-426): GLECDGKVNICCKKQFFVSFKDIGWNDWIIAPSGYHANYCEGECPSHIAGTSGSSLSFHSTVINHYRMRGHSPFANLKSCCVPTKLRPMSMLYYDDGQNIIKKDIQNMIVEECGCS
Description: An A-204 reporter gene assay was used to evaluate the effects of ActRIIB-Fc proteins and GDF traps on signaling by GDF-11 and activin A. Cell line: human rhabdomyosarcoma (derived from muscle). Reporter vector: pGL3(CAGA)12 (described in Dennler et al, 1998, EMBO 17: 3091-3100). The CAGA12 motif is present in TGF-beta responsive genes (e.g., PAI-1 gene), so this vector is of general use for factors signaling through SMAD2 and 3.
Day 1: Split A-204 cells into 48-well plate.
Day 2: A-204 cells transfected with 10 ug pGL3(CAGA)12 or pGL3(CAGA)12(10 ug)+pRLCMV (1 μg) and Fugene.
Day 3: Add factors (diluted into medium+0.1% BSA). Inhibitors need to be preincubated with factors for 1 hr before adding to cells. Six hrs later, cells were rinsed with PBS and lysed.
This is followed by a luciferase assay.
as §3, §4

activin B [11] = target: T1, activin B; assay: A-204 reporter gene assay, pGL3(CAGA)12 luciferase; format: cell-based; set-up: host or cells: exogenous factor added to A-204 cells (human rhabdomyosarcoma); conditions: Example 13
Description: as §3, §4

BMP6 [12] = target: T2, BMP6; assay: Biacore-based binding assay, receptor captured with anti-Fc antibody
Experimental: (§5) A Biacore™-based binding assay was used to compare ligand binding selectivity of the ALK4-Fc:ActRIIB-Fc heterodimeric complex described above with that of ActRIIB-Fc and ALK4-Fc homodimer complexes. The ALK4-Fc:ActRIIB-Fc heterodimer, ActRIIB-Fc homodimer, and ALK4-Fc homodimer were independently captured onto the system using an anti-Fc antibody. Ligands were injected and allowed to flow over the captured receptor protein. Results are summarized in the table below, in which ligand off-rates (kd) most indicative of effective ligand traps are denoted in bold font.

GDF11 [13] = target: T5, GDF11; assay: as above
Experimental: as §5

activin B [14] = target: T1, activin B; assay: as above
Experimental: as §5

activin A [15] = target: T6, activin A; assay: as above
Experimental: as §5

GDF8 [16] = target: T3, GDF8; assay: as above
Experimental: as §5

GDF3 = target: T7, GDF3 (Homo sapiens, UniProt Q9NR23); assay: as above
T7 sequence (Q9NR23 251-364): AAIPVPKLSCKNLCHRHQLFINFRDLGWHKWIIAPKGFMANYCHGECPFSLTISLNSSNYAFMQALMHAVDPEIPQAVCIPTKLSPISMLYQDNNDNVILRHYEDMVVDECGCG
Experimental: as §5

BMP9 = target: T8, BMP9 (Homo sapiens, UniProt Q9UK05); assay: as above
T8 sequence (Q9UK05 320-429): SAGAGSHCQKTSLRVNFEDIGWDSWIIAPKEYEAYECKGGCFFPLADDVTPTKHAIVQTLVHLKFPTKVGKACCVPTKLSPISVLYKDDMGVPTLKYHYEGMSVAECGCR
Experimental: as §5

BMP10 [17] = target: T4, BMP10; assay: as above
Experimental: as §5

Molecule: ActRIIB(L79D 25-131)-hFc: GDF trap with truncated ActRIIB extracellular domain (residues 25-131, L79D) fused to human Fc (SEQ ID NO: 78)
binding to BMP6 (BMP6 [4]): strong to intermediate binding | binding to GDF8 (GDF8 [5]): strong to intermediate binding | binding to BMP10 (BMP10 [6]): strong to intermediate binding

B1: ActRIIB(20-119)-Fc: ActRIIB-Fc fusion protein containing amino acids 20-119 of SEQ ID NO: 1 (protein)
chain: GRGEAETRECIYYNANWELERTNQSGLERCEGEQDKRLHCYASWRNSSGTIELVKKGCWLDDFNCYDRQECVATEENPQVYFCCCEGNFCNERFTHLPEA
modifications: Fc fusion, Fc no entry
binding to activin relative to ActRIIB(20-134)-Fc (activin): reduced binding | binding to GDF11 relative to ActRIIB(20-134)-Fc (GDF11 [7]): reduced binding

Further lines, with some results ahead:

affinity for activin B ligand compared with that reported for ActRIIa-hFc expressed in human 293 cells (activin B [1]): higher affinity
Molecule: ActRIIA-hFc: extracellular domain of human ActRIIa fused to a human Fc domain with a minimal linker (SEQ ID NO: 32); homodimer
circulating levels of the drug [2]: 30 µg/mL | circulating levels of the drug after two weeks [3]: 30 µg/mL

inhibition of GDF11 signaling (GDF11 [8]): potent inhibitors | inhibition of GDF8 signaling (GDF8 [9]): potent inhibitors | inhibition of activin A signaling (activin A [10]): potent inhibitors | inhibition of activin B signaling (activin B [11]): potent inhibitors | ka, BMP6 (BMP6 [12]): 3.2e+07 M⁻¹ s⁻¹ | kd, BMP6 (BMP6 [12]): 0.0068 s⁻¹ | ka, GDF11 (GDF11 [13]): 5e+07 M⁻¹ s⁻¹ | kd, GDF11 (GDF11 [13]): 0.00011 s⁻¹ | Kd (GDF11 [13]; † = very low signal): 2 pM | ka, Activin B (activin B [14]): 5.1e+06 M⁻¹ s⁻¹ | kd, Activin B (activin B [14]): 0.0001 s⁻¹ | ka, Activin A (activin A [15]): 1.2e+07 M⁻¹ s⁻¹ | kd, Activin A (activin A [15]): 0.00023 s⁻¹ | ka, GDF8 (GDF8 [16]): 830000 M⁻¹ s⁻¹ | kd, GDF8 (GDF8 [16]): 0.00023 s⁻¹ | Kd (GDF8 [16]; † = very low signal): 280 pM | Kd (GDF3): 1500 pM | ka, GDF3 (GDF3): 1.4e+06 M⁻¹ s⁻¹ | kd, GDF3 (GDF3): 0.0022 s⁻¹ | Kd (BMP9): 77 pM | ka, BMP9 (BMP9): 1.4e+07 M⁻¹ s⁻¹ | kd, BMP9 (BMP9): 0.0011 s⁻¹ | Kd (BMP10 [17]): 11 pM | ka, BMP10 (BMP10 [17]): 2.3e+07 M⁻¹ s⁻¹ | kd, BMP10 (BMP10 [17]): 0.00026 s⁻¹
B2: ActRIIB-Fc homodimer: homodimer complex of ActRIIB-Fc fusion polypeptide (protein)
chain: GRGEAETRECIYYNANWELERTNQSGLERCEGEQDKRLHCYASWRNSSGTIELVKKGCWLDDFNCYDRQECVATEENPQVYFCCCEGNFCNERFTHLPEAGGPEVTYEPPPTAPT
modifications: left off: a dimerising Fc or GST
notes: homodimer complex of ActRIIB-Fc fusion polypeptide
